Consider 23 sequences from the DeepSol protein solubility set.

This series is described as follows: soluble on expression in E. coli; label from the status in PepcDB or PDB records.
Turning to “GNSPQEEVELKKLKHLEKSVEKIADQLEELNKELTGIQQGFLPKDLQAEALCKLDRRVKATIEQFMKILEEIDTLILPENFKDSRLKRKGLVKKVQAFLAECDTVEQNICQETE”, the “soluble on expression in E. coli” value is on record as “soluble”. The entry for “GPFCGRARVHTDFTPSPYDTDSLKIKKGDIIDIICKTPMGMWTGMLNNKVGNFKFIYVDVISE” is “soluble”. The entry for “GPGSAEKKQKQHFYLTQEMPPRRDPERQRAKVAAATMAPSEHKKASLPPAKLRLNLGPFLPQKKKNRPPKTTEIDWGSEQTPRLQCSWHPQRRNGIVSFPVMMSYPVSCHCAAWGCHITRAYPTMTRQGAHRLASPKVGRPRRSTRKPDQK” is “soluble”. Take “GPGSATTVHGETVVNGAKLTVTKNLDLVNSNALIPNTDFTFKIEPDTTVNEDGNKFKGVALNTPMTKVTYTNSDKGGSNTKTAEFDFSEVTFEKPGVYYYKVTEEKIDKVPGVSYDTTSYTVQVHVLWNEEQQKPVATYIVGYKEGSKVPIQFKASLDSTTLTVKKKVSGTGGDRSKDFNFGLTLKANQYYKASEKVMIEKTTKGGQAPVQTEASIDQLYHFTLKDGESIKVTNLPVGVDYVVTEDDYKSEKYTTNVEVSPQDGAVKNIAGNSTEQETSTDKDMTITFTNKKVFE”: the “soluble on expression in E. coli” value was “soluble”.

Consider “GPGSGRYREGVEDCTKTLQIDKEFYKAYARRARCHEHLGDHFAAVRDFKKAIEYDSTDRELARELRAAEQNLAKEAEKERDFYFQLGVSRTATEREIKLKYRELSLRWHPDKCIGLDEVERERAEHKFKIISEAYATLVDAGKRREYDAKQDRERFTRAGGFNFSSTYSGGNANDYYRGRHRAGGNGFW”, for which the “soluble on expression in E. coli” value is on record as “soluble”. In the case of “GPGSMAASQLIATRFTDLLAEGNIESALKYIANDVVYNTWLGVVYGKDNVEVFLRDNVRFVHHGRNYNRWKQVQHSLDASLKQFTVNDVSGYDESALDVRSYYDSEGYDSQGYATFERDGTIASHAKFAVFHVKVKETVVLRNNKVVLVNVSKRA”, the “soluble on expression in E. coli” value is reported as “not soluble”. The entry for “GPGSMADVADPSSELINELRALVVSGSGLVPLDERKVHTVVENMTDAFRHLESISRNPFADPSQPYYSGAMRFYKAKCLRDKRCVVAYLLWRQSQITKSWWEARDNTISNMLAPCERTFLQDYNDVMVEYMTSFAVPLDLRSFTWRPPSTQQLEVRGLVNHVFVSSITGAVINLYKGKQILLGFEEAESLIQQGVVELVE” is “not soluble”; for “GPGSMAIEVATSTRLQYARMLRSMLEMDRTPLDMMILGFQKIAARSETRQTRQARPVTEEEMNEYIRSRTDWKERVVVRLAWMTASRWSEIAALNPNNFKLKPDGALILDWPVVPKTARADPHRAFRFVRIRGQDAFDIIKLCRTLQENEKLTNITNAQVERALAPWDATAHSIERGALRHAAQIVEKYNLDPHVISQLAKHVNPFDLPQNTV” it is “soluble”; for “GPGSMARVTLREDFDDCAADYRILSVSADHFKEITCKVAACKQTGEEMGKINETHHEATTLMTMKGGSQLLLCDDERTFRVRRVEYSNTLLLAEAKAAKMHDTNGIIESDNASDAGEGREHVVVCSSERVFEVKPSVAYNDISQHLLESPLTLKELDTLGTVERSDENVEYIKREELENGTSSSAQRFYTFPQLVALNRSSARELAVILSDMGAVVFNGYVRLLKPALMREALRASLNFFDAYDTMSWEGVMEQLCPSVYPHIVLRAVRAAYGNATASGETPRGMAAFLQVPKVLQALAASVLLADDAEQNTQFTEAELQDKKLSKSVNRRGSLFPELDFDIFYDSWTSSIPSSLFADGTLPSQSDRNALLKFLYGSVIVVRNAEGDSHVGARAVWAPSNVLSTDVSLRTRQLFEIRPGRWEAEELRAYVAPLLDPGVAFDHIIVRYAKEYRVPGRPVMYGNLS” it is “not soluble”. The entry for “GPGSMDKTKDSLIAVYDLGGGTFDISVLEIAGGVFEVKATNGDTHLGGEDFDLALSDYILEEFRKTSGIDLSKERMALQRVREAAEKAKCELSSAMETEVNLPFITANADGAQHIQMHISRSKFEGITQRLIERSIAPCKQCMKDAGVELKEINDVVLVGGMTRMPKVVEEVKKFFQKDPFRGVNPDEAVALGAATLGGVLRGKASDLILVDVTPLSLGTSVVGDVFTRMIPKNTTIPCMRSHIFTTVDDGQTAIKFKVFQGEREIASENQIRGEFDLSGIPPAPRGVPQIEVTFDIDANGICHVTAKDKATGKTQNITITANGGLSKEQIEQMIRDSEQHAEADRVKRELVEVRNNAETQLTTAERQLGEWKYVSDAEKENVKTLVAELRKAMENPNVAKDDLAAATDKLQKAVMECGRTEYQQAAAANSGQC” is “not soluble”; for “GPGSMDVSKRPREELHKEQCLSFVKKLWAADTLAMFHYPVSATEVPGYYDVVETPMDLSTIRKNIEQGTYRTDAEVENDVVLMLSNALDFNEKGSQWHDLAKQFKKQYLTLARESGLSFDADQAFIPTKKVRDDESTLRKAEKKGEEKLEDVLQAMEKDKEIPLEQLRAMYARRTTRGKADQQSSDFSSGRGNDDSDEVVSSDEEDTSDSGSGSYDTEEDEDSLDSESASKDDDDDK” it is “soluble”; for “GPGSMEATVAPSTGLRQLRRVRRARTQYERLQRPDDIQPGYPIPSIEGWVLFFSNLPETTTQEDIANYLVSFKEGDPDYFGAITDIKIPLNADCFCAGYALVELEDRAGYERAIAELNGTVFPSADKPLVVAPTFLGEEEEQEPQAEEVAPGEKRARD” it is “soluble”. The result for “GPGSMEEDLAYKIIVIGSVSVGKSNITSRFCDGAFYPDLVPTLGMDFKYSSCNTLEKRPRCVRLQVWDTSGQDDFVTLTTAFYRNCQGALLCFDLTNRQSFEDLDQWYERLERYSPVVPPLILVGCKLDLVESHLDEQGEGIVLGSHRQIAKSEADAWARYHSCLCYLETSAKENRNVSQAFQQLATCIASVANPGAKHAGRILGPGGRLLVEEEKQQKRQCCAN” reads “not soluble”; that for “GPGSMEERKTASGSAYYLPSPLLLSQNQGEERVKFVVVSGGVCSSLGKGVTTSAIGALLHASGYRVCSIKIDPYINIDAGLMSPYEHGEVYVLEDGGEADLDLGNYERWMSVHLTRDHNITTGKMYQKLLTKERAGGFLGKTVQLVPHFTNEVVNHIFKIC”, “not soluble”; that for “GPGSMFRAVYSNPAANVPASNCMTDGFPLLPPQRPHSSGSQLMRGCPLPWNDGRTLMYGVPAKNEASLQQVSYSRTLGQRWSSGSADNAAQCAAATHSTVCFASCASGANGSAGGSPVLLQPAMGVPAFVTDNQQLPSMVAQSSPTVSRLTSGMCSTSEGSATFGASTTSATSSTVGNCAATGTAATTNGSMAHTGTSPALPGFQMSVPLPTSAMTAVAAPPQQPQTCFWLSHTTGALTPIRKEDMMTISDTSASTNTHSYAMPPPPTMPSQPSSASATSVPTYLMAPQVSSFGGAMVQAFSELLSGSTAFSVPALPLPQPPRPPKTLNGLQYHLGELYEGFVKRYNPNRGFGFLTATTHVTVVNDGSNSDSATGTPIASLNNTTTAVPTTGEAETPKEYRTPVHLGDIFVHQSSMQMEGFRTLPVGGRVRFCIGYKDGQQTLQAVNVELLPQVLPPNVEMASSP”, “not soluble”. On to “GPGSMGKYAAVIIGPAGSGKSTLCGVLAEHYATMGRSTHIANMDPAADLLPYEPSMDIRDLISLEDAMEGKGLGPNGGLVFCMEYLVTAGATWVSQQLGDYADDFIIVDMPGQVEVLSNQPAVPAFVRLLQQEGYYTTVLYLLDALATTADSGKFISGCMFSLSSMVCFDCPFINVLTKCDLLSKDFKENGMLEHFCMCDFDYMDLSRLPPRFRAMSRQIGALLTDFNLVTFRPVDIEDVGYVSNLCSVLDETLQVADEAEVQDHDLGDN”, for which the “soluble on expression in E. coli” value was “soluble”. The entry for “GPGSMGRERMASSWRMPVYRSWQCSTPWSVSLPHPGPALPTLLVRHVCTPVSVCLYTNLSYCSLHAHNSIERLPPPLHAFVPTTHTHTHKHTYICIYACHSPLLRVSTWTKAFCLILRSRTLSTMSTKYLAAYALASLSKASPSQADVEAICKAVHIDVDQATLAFVMESVTGRDVATLIAEGAAKMSAMPAASSGAAAGVTASAAGDAAPAAAAAKKDEPEEEADDDMGFGLFD” is “not soluble”; for “GPGSMIQIIAPRGPLQEMLLLELQGKVVIPPKLLEEERERQRIPNSSEEEVKACSQVTGGKRLREDGECGVNVDTNQVVEVPLGCVVWDSRNETRCSLQIGTVEVSGSYGKRREPLLVLKRCVVGDKTADAEGAVACEYSESSGSQCCLLQEWLQEHPEELTLDATVRGATVPRKVYELVGVVERYIHLNSKPLRRFV” it is “not soluble”; for “GPGSMKTIALLSGGKDSILAMLMAHRYGHEPVVIANMAPVLESDGALRGAAENGTHGHDIDSYMYQTVGFEAVDSIAACLGLPLRRGRVRRGLAKDQSLLYSEQPPEEDEVESLYSLIRTVKEEFPEVQGLTSGAILSNYQRNRVELICDRLGLESLAYLWMRQPDEILDMADALHVQAILVKTASIGLMPRCLIGKTLEEARPTLEKMAELYHSHLAGEGGEYETIVLNCPLFHAEHLTVTALEVVMQDDNDISPSGHGLLTVARVPKSVEQQAKEAEVLARVRAGAVTFPSDTMPLLRSCAVYPLALSATASARGPGETIDLPLPATIRSALFLGSGTAAARDGIAHHTYASPLEAGASAAEALNACLTVLQTWAAERSLTPFYYHFSLPEPSWEVSCRAAYAGKVSHVCPPGLLVTVRDSRSRSAAAVEAEVLAAPTAAIQQHVLHAQSRSCWALGEPGPHSQARRVGLATGTSRLFVSATPGRVPATREVATASDLPAVCQQCITALAAAQHGEETSAALTDIAAQFVVAMSNCERYLTLFGCSFGDVDRAAVVATDDVPVSLLPALWQWTTQNTGALPFERVCQVVVVGALSGTEKIRVSMECVEVRGGGG” it is “not soluble”. The entry for “GPGSMLRFTHRALTATPERFSVLGTTHPKPKRTGFGRNNKMRSKPSDNVAWYDKGPVEWLPRPVRLTYDHLDQLQQWMMRATLDGRTEEFNRIRDLHREWSQHPLMPVLGDVEPKFPLNLFKQNHRAKKRFLVRWHKANTPANWLWMPRGPTVVTPLHRTNPTQYPENWKQMVQRKSGTGTPS” is “not soluble”.

As to “GPGSMLRRQCVPLRVVAAGLRLNSSSSGPSKTNDGGIPNATGMDNAPGLYAEKPSSTYCEEKYPNKVEEVGSLKPPTYDVPHGRSDNIKTPEFNTSLGKFDQAPYFTGGPPAMRYHGYKRDPAVEGVDYRDVLPKTPIEDHHPHMEFLSVTGRREGSTFLLANAGVNWELKAAAMSLYRTILKSLPMIKHYYWLLVPLPAMKDKIRLRFLQNQHTKDPDAIRHLLHNGWMEFQESIMFRRPR”, the “soluble on expression in E. coli” value is “not soluble”. The result for “GPGSMLSTIKTRPQGPYCGDYFSIVEGRVDFPVDLDTFDISLTISGDVEECKNEPYVYDEVSGNVELTNAQDPGDCLGSILRRNQLTLMVTYHPDDDKISLDFGIAVVNLSPCP” reads “not soluble”; that for “GPGSMLTRSLVCRASLQSRRRWEQRIVSVLSENKEEGVDAVAKRFQRVYKERRYTPVEEAFPPLAAAAAAPGLRSSAAKESVESVQQPANPLVLRVAFLGPQNAGKTSLVNSMALSNVGAVSNRYGSTKDWTKAVATVHETQLLLLDTPGIVPRDTQRVRRKFASGTAKAYDALFVSDLVVLALPVGVGFVEKEHKVVATEVVRRAAGRELPVVIAMTMMDKVQTPWHRELYFAMRTDLESLGLPTAATHEVSVKGGSGLVELKDCLCQYAKPGAWEHYRREATDLNPPQRVAELLRQTFMELLPHEIPHCMRHRVLGWTRKESGTTEVVVEAFFDRPAYMFTFYGKLEAICLRAQQVTERELAPQRFRFVFQAFIAPGGLSNS”, “not soluble”.
